This is an account of results in patent publication EP4682166A1 (Guangzhou Enmai Biotechnology Co., Ltd, dated 2026).

For assay [1], the target named is T1, human NMI (N-myc Interacting protein), recombinant protein (human, UniProt Q13287 1-307, limits assumed).
T1 construct: Gene ID: 9111; also called hNMI; antigen
T1 sequence (looked up): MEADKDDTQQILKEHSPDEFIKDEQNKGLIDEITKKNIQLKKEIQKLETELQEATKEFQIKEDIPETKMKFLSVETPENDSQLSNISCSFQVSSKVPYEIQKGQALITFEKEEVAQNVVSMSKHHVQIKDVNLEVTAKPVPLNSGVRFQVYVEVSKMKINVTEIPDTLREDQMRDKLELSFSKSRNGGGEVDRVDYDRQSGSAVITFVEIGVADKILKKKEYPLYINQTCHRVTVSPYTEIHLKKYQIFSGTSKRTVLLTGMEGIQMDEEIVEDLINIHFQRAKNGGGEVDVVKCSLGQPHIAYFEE
The assay is described as follows: indirect ELISA, coated hNMI. In general terms: In an ELISA, binding on a coated surface is turned into a signal by an enzyme label.

Assay [2] has as its target T1, human NMI (N-myc Interacting protein), …. The assay is described as follows: sandwich ELISA; detection 98G10-1-biotin; hNMI 1.235 ng/mL.
Assay [3] shares this target. Kind of assay: sandwich ELISA; detection 39B4-1-biotin; hNMI 100.000 ng/mL.
The target is the same in assay [4]. Kind of assay: sandwich ELISA; detection 98G10-1-biotin; hNMI 3.704 ng/mL.
Assay [5] has the same target. Kind of assay: sandwich ELISA; detection 39B4-1-biotin; hNMI 3.704 ng/mL.
The target is the same in assay [6]. Kind of assay: sandwich ELISA; detection 39B4-1-biotin; hNMI 1.235 ng/mL.
The target is the same in assay [7]. The assay is described as follows: sandwich ELISA; detection 98G10-1-biotin; hNMI 33.333 ng/mL.
Assay [8] shares this target. The assay is described as follows: sandwich ELISA; detection 98G10-1-biotin; hNMI 100.000 ng/mL.
The target is the same in assay [9]. The assay is described as follows: sandwich ELISA; detection 39B4-1-biotin; hNMI 11.111 ng/mL.
The target is the same in assay [10]. Kind of assay: sandwich ELISA; detection 98G10-1-biotin; hNMI 11.111 ng/mL.
For assay [11] the target is unchanged. The assay is described as follows: sandwich ELISA; detection 39B4-1-biotin; hNMI 33.333 ng/mL.
The target in assay [12] is T2, human NMI (N-myc Interacting protein) (human, UniProt Q13287 1-307, limits assumed).
T2 construct: Immunogen and ELISA coating antigen; also called hNMI; antigen 1
T2 sequence (looked up): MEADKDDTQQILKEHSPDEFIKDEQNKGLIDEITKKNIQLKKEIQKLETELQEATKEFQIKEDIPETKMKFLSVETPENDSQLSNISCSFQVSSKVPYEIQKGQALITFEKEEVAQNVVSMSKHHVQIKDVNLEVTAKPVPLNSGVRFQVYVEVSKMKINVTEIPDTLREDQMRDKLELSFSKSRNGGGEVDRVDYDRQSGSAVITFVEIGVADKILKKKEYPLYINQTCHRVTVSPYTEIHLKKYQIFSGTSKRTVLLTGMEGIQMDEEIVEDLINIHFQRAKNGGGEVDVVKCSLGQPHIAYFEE
The assay is described as follows: indirect ELISA, human NMI coated; supernatant 1/243.

In assay [13] the target is T2, human NMI (N-myc Interacting protein). Kind of assay: indirect ELISA, human NMI coated; supernatant 1/6561.
Assay [14] shares this target. Kind of assay: I-ELISA, hNMI coated 1 ug/mL; antibody 156.25 ng/mL.
For assay [15] the target is unchanged. Kind of assay: indirect ELISA, human NMI coated; supernatant 1/9.
The target is the same in assay [16]. The assay is described as follows: indirect ELISA, human NMI coated; supernatant 1/59049.
Assay [17] has the same target. The assay is described as follows: indirect ELISA, human NMI coated; supernatant dilution series.
Assay [18] has the same target. The assay is described as follows: I-ELISA, hNMI coated 1 ug/mL; antibody 312.5 ng/mL.
The target is the same in assay [19]. Kind of assay: indirect ELISA, human NMI coated; supernatant 1/2187.
The target is the same in assay [20]. Kind of assay: I-ELISA, hNMI coated 1 ug/mL; antibody 625 ng/mL.
The target is the same in assay [21]. Kind of assay: I-ELISA, hNMI coated 1 ug/mL; antibody 39.0625 ng/mL.
For assay [22] the target is unchanged. Kind of assay: I-ELISA, hNMI coated 1 ug/mL; antibody 4.8828125 ng/mL.
Assay [23] has the same target. Kind of assay: indirect ELISA, human NMI coated (repeats Table 1).
For assay [24] the target is unchanged. Kind of assay: indirect ELISA, human NMI coated; supernatant 1/27.
Assay [25] shares this target. Kind of assay: I-ELISA, hNMI coated 1 ug/mL; antibody 2500 ng/mL.
The target is the same in assay [26]. The assay is described as follows: I-ELISA, hNMI coated 1 ug/mL; antibody 1.2207031 ng/mL.
Assay [27] shares this target. The assay is described as follows: sandwich ELISA; coating antibody 2.5 ug/mL, detection 94C4-biotin 0.5 ug/mL.
Assay [28] shares this target. The assay is described as follows: I-ELISA, hNMI coated 1 ug/mL; antibody 2.4414063 ng/mL.
The target is the same in assay [29]. The assay is described as follows: indirect ELISA, human NMI coated; supernatant 1/3.
Assay [30] has the same target. The assay is described as follows: indirect ELISA, human NMI coated; supernatant undiluted.
The target is the same in assay [31]. The assay is described as follows: indirect ELISA, human NMI coated; supernatant 1/19683.
The target is the same in assay [32]. The assay is described as follows: indirect ELISA, human NMI coated; supernatant 1/729.
Assay [33] shares this target. Kind of assay: indirect ELISA, human NMI coated; supernatant 1/81.
Assay [34] shares this target. Kind of assay: I-ELISA, hNMI coated 1 ug/mL; antibody 9.765625 ng/mL.
For assay [35] the target is unchanged. Kind of assay: I-ELISA, hNMI coated 1 ug/mL; antibody 1250 ng/mL.
For assay [36] the target is unchanged. The assay is described as follows: I-ELISA, hNMI coated 1 ug/mL; antibody 19.53125 ng/mL.
Assay [37] has the same target. The assay is described as follows: I-ELISA, hNMI coated 1 ug/mL; antibody 78.125 ng/mL.
Assay [38] has the same target. The assay is described as follows: indirect ELISA, human NMI coated (repeats Table 3).
Assay [39] has the same target. The assay is described as follows: indirect ELISA, human NMI coated; supernatant dilution series. The source holds these as a separate data set.

B1: monoclonal antibody 94C4 (antibody, V domains shown)
VH: QSLEESGGGLVQPEGSLTLTCKASGFDFSSNAMCWVRQAPGKGLEWIACISSASSGSSGSTYYASWAKGRFTISKTSSTTVTLQMTSLTAADMATYFCARDGYDLWGPGTLVTVSS
VL: QVLTQTPSSVSAAVGGTVTISCQSSPSVYNNYLSWFQQKPGQSPKLLIYRVSTLASGVPSRFSGSGSGTQFTLTISGVQCDDAATYYCAGGYDSASDTYVFGGGTEVVVK
notes: Rabbit monoclonal antibody; Used biotin-labelled as detection antibody (94C4-1-biotin); also called 94C4-1
On to B1, for which, in assay [1], the EC50 (in general, the midpoint of the concentration-response curve) is 32.7 ng/mL. Further, the OD450 in assay [2] was 0.292 OD450; in assay [3] it was 3.22 OD450; in assay [4], 0.627 OD450; in assay [5], 0.735 OD450; in [6], 0.372 OD450; in assay [7], 2.51 OD450. Also, the OD450 in [8] amounted to 3.1 OD450; in assay [9] it was 1.67 OD450; in [10], 1.36 OD450; in [11] it was 2.75 OD450.

B2: 39B4 (antibody, V domains shown)
VH: QEQLVESGGGLVQPEGSLTLTCTASGFSFSSSYWICWVRQAPGKGLEWIACIYAGTSGSTYYASWAKGRFTISKTSSTTVDLQMNSLTAADTATYFCARAGYYTYGAGVYIYPSSFKLWGPGTLVTVSS
VL: DVVMTQTPASVEAAVGGTVTIKCQASESIGNALAWYQQKPGQPPKLLIYSASNLASGVPSRFSGSGSGTQFTLTISDLECADAATYYCQSYYYSSSSITFGGGTEVVVK
notes: Rabbit monoclonal antibody; also called 39B4-1; 39B4-1-biotin (biotin-labelled form)
On to B2, for which the “ELISA OD” value came to 3.1 OD in assay [12]; 1.61 OD in [13]; 3.41 OD in [15]; 0.415 OD in assay [16]; 2.32 OD in assay [19]; 3.35 OD in assay [24]. For the same molecule, the “ELISA OD” value in assay [29] amounted to 3.43 OD; in assay [30], 3.4 OD; in assay [31], 0.758 OD; in assay [32], 2.76 OD; in [33] it was 3.28 OD. Also, the OD450 was determined as 1.8 OD450 in assay [14]; 1.99 OD450 in assay [18]; 1.99 OD450 in assay [20]; 0.828 OD450 in assay [21]; 0.159 OD450 in assay [22]; 2.25 OD450 in assay [25]. Besides, the OD450 in assay [26] came to 0.077 OD450; in assay [28], 0.099 OD450; in [34] it was 0.296 OD450; in assay [35] it was 2.13 OD450; in [36] it was 0.529 OD450; in assay [37] it was 1.43 OD450. Besides, the EC50 in assay [17] and in [23] was 0.567 ng/mL each time. Moreover, in assay [27], the “detection limit (sensitivity)” value is 40 pg/mL.

B3: B-8 (antibody, V domains shown)
VH: QSLEESGGDLVKPGASLTLTCTASGFSFSSSYYMCWVRQAPGKGLEWIACIYAGSSGSTYYASWAKGRFTISKTSSTTVTLQMTSLTAADTATYFCAREYSYDDYGDFWGFNLWGPGTLVTVSS
VL: ALVMTQTPSSVSAAVGGTVTINCQASQNIYTNLAWYQQKPGQPPKLLIYGASNLESGVPSRFKGSGSGTEYTLTISDLECDDAATYYCQSSLYSRIADRANAFGGGTEVVVK
notes: Rabbit monoclonal antibody; also called B8-1; B-8-biotin (biotin-labelled form)
Turning to B3, the OD450 in assay [14] was 1.36 OD450; in [18] it was 1.67 OD450; in assay [20], 1.62 OD450; in [21], 0.838 OD450; in assay [22], 0.143 OD450; in [25], 1.85 OD450. Moreover, the OD450 in [26] worked out at 0.084 OD450; in assay [28] it was 0.099 OD450; in [34], 0.243 OD450; in [35], 1.68 OD450; in assay [36], 0.502 OD450; in assay [37], 1.26 OD450. For the same molecule, the EC50 in assay [38] and in [39] was 2.51 ng/mL each time. Also, in assay [27], the “detection limit (sensitivity)” value amounted to 60 pg/mL.
